The values below come from US20090281023A9.

Assay [1] has as its target PEG7-Octyl-Salmon Calcitonin, Diconjugate (salmon) (UniProt P01263).
For assay [2], the target named is salmon calcitonin (salmon) (UniProt P01263).
For assay [3] the target is unchanged. The source holds these as a separate data set.
For assay [4], the target named is PEG7-Octyl-Salmon Calcitonin, Diconjugate (salmon) (UniProt P01263). The source holds these as a separate data set.

As to Trypsin (enzyme), the % Remaining following 1 U/mL Trypsin Digest (180 min, non-formulated) is 61 % remaining in assay [1] and 31 % remaining in assay [2].

With Chymotrypsin (enzyme), the values for the % Remaining Following 0.5 U/mL Chymotrypsin Digest (60 min, non-formulated) in assay [3] and in assay [4] were 5 % remaining and 6 % remaining, respectively.
